Results on one substance are retold here after paper PMC2148200.

Assay [1] has as its target human recombinant BMP-2 (human) (UniProt P12643). Description: ELISA.
A further assay deals with TGF-β1. Description: ELISA.

Chain of human recombinant BMP-2 (human) (P12643 283-396): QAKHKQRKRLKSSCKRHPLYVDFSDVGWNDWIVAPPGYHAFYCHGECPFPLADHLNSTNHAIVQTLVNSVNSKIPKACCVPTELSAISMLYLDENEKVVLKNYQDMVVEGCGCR

Regarding “recombinant human type IIA procollagen NH2-propeptide (rhIIA-GST, exon 2-GST fusion protein) (domain or fragment)”, the Kd (commonly the constant that tells how readily two partners part at equilibrium) is 5.23 nM in assay [1] and 7.65 nM with TGF-β1.
